Columns and labels:
[1] = molecular target: T1, LiaS (GST-LiaS, liaS^126) (Bacillus subtilis, UniProt O32198); assay: autophosphorylation, […] incorporation by SDS-PAGE phosphorimaging, kobs against ATP; format: biochemical; conditions: labelled compound; pH 7.4, 50 mM KCl, 5 mM MgCl2, 10 mM CaCl2, 25 °C; 5 μM LiaS; 10-250 μM ATP; apparent dissociation constant from kinetics; read-out: KS
T1 construct: cytoplasmic domain, residues 126-360 (TM and HAMP removed), fused to C-terminus of GST; pGEX-4T-1, E. coli BL21(DE3); calculated mass 52,431 (printed as kD)
T1 sequence (O32198 126-360): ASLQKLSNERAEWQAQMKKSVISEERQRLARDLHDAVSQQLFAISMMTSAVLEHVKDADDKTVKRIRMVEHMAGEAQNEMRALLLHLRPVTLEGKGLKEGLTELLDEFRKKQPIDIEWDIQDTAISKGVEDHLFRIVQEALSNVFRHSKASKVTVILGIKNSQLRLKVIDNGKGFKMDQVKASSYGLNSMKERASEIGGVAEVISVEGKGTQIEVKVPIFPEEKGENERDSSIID

LiaR^N (RD of LiaR) = molecular target: T2, LiaR^N (RD of LiaR) (Bacillus subtilis, UniProt O32197); assay: phosphorylation by acetyl phosphate; format: biochemical; conditions: covalent phosphorylation of the stand-alone receiver domain
T2 construct: receiver domain, tagless, Gly-131 codon changed to stop (residues 1-130); pET26b, E. coli BL21(DE3); calculated mass 14,029 (printed as kD)

[2] = system: LiaRC (effector domain) (Bacillus subtilis 168); assay: EMSA; conditions: 5 mM Mg2+; EMSA: 10 mM Tris pH 7.5, 50 mM KCl, 1 mM DTT, 5 mM MgCl2, 10 ng herring sperm DNA, 2.5% glycerol, 25 C, 30 min, 9% native PAGE; footprinting as in ref 35
[3] = system: LiaR (Bacillus subtilis 168); assay: EMSA; conditions: 5 mM Mg2+; unphosphorylated; EMSA: 10 mM Tris pH 7.5, 50 mM KCl, 1 mM DTT, 5 mM MgCl2, 10 ng herring sperm DNA, 2.5% glycerol, 25 C, 30 min, 9% native PAGE; footprinting as in ref 35
[4] = molecular target: T3, VraR (Staphylococcus aureus) (UniProt Q7A2Q1); assay: DNase I footprinting; conditions: EMSA: 10 mM Tris pH 7.5, 50 mM KCl, 1 mM DTT, 5 mM MgCl2, 10 ng herring sperm DNA, 2.5% glycerol, 25 C, 30 min, 9% native PAGE; footprinting as in ref 35
T3 sequence: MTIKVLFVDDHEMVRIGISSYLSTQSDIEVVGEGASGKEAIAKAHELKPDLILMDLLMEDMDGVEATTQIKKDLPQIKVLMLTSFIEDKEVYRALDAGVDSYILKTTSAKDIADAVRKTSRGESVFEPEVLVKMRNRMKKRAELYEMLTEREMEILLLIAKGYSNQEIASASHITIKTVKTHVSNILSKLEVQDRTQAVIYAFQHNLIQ

[5] = molecular target: T4, LiaR (Bacillus subtilis 168) (UniProt O32197); assay: DNase I footprinting; conditions: EMSA: 10 mM Tris pH 7.5, 50 mM KCl, 1 mM DTT, 5 mM MgCl2, 10 ng herring sperm DNA, 2.5% glycerol, 25 C, 30 min, 9% native PAGE; footprinting as in ref 35
T4 sequence: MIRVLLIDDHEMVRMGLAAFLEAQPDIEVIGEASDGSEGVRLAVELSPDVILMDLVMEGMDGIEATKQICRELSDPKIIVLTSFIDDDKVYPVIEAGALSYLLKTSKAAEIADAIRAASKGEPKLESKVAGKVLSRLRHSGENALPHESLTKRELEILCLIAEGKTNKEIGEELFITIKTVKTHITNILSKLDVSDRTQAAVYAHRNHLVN

[6] = molecular target: T4, LiaR (Bacillus subtilis 168); assay: EMSA; conditions: EMSA: 10 mM Tris pH 7.5, 50 mM KCl, 1 mM DTT, 5 mM MgCl2, 10 ng herring sperm DNA, 2.5% glycerol, 25 C, 30 min, 9% native PAGE; footprinting as in ref 35
[7] = molecular target: T5, LiaRC (effector domain) (Bacillus subtilis 168) (UniProt O32197); assay: EMSA; conditions: EMSA: 10 mM Tris pH 7.5, 50 mM KCl, 1 mM DTT, 5 mM MgCl2, 10 ng herring sperm DNA, 2.5% glycerol, 25 C, 30 min, 9% native PAGE; footprinting as in ref 35
T5 sequence: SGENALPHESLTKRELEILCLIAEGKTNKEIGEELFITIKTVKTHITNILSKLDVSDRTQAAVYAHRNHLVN

native-PAGE = molecular target: the molecule itself; assay: native-PAGE

**Q.** `Nc1ncnc2c1ncn2[C@@H]1O[C@H](COP(=O)(O)OP(=O)(O)OP(=O)(O)O)[C@@H](O)[C@H]1O` [ATP] was tested. Which Kd [1] did it give?
**A.** 7 ± 1 µM

**Q.** For `CC(=O)OP(=O)(O)O` [acetyl phosphate], which “phosphorylation by acetyl phosphate” value (LiaR^N (RD of LiaR)) is on record?
**A.** RD of LiaR also underwent phosphorylation by acetyl phosphate

**Q.** Which results are given for PliaI (-162 to +31)?
**A.** Kd [2]: 20 µM; Kd [3]: 200 nM

**Q.** For “TTCATGCAGATCCTCCTTTCGTTTTCCTTGTCTTCATCTTATACAAGTTGGAAGATATGCAAAACGAATCAGAGATTGATTTTTATATAAGACCGGAGTCGTATCTCGCACCGGACCCATTGGCACAAAAAAACGCCATGCACGAGGCATGGCGTTTTAAAACCCTTTACAGATGAACACTTGCTTCCCTTTC (double strand) [PliaI (-162 to +31)]”, which binding [4] is on record?
**A.** binds

**Q.** What about the binding [5] of the same molecule?
**A.** binds

**Q.** What about the Kd [6] of the same molecule?
**A.** 200 nM

**Q.** And the Kd [7]?
**A.** 20 µM

B1: LiaR 1-211 (protein)
chain: T4 sequence
**Q.** B1 was tested. Which Kd (native-PAGE) did it give?
**A.** > 20 µM

— paper PMC7191749, “Low phosphatase activity of LiaS and strong LiaR-DNA affinity explain the unusual LiaS to LiaR in vivo stoichiometry” (BMC Microbiology, 2020)
